In the supplement of paper PMC9112550, “Optimization of the antimicrobial peptide Bac7 by deep mutational scanning” (BMC Biology, 2022):

Test system: Escherichia coli TOP10
Experiment: shrunken log2 fold change of peptide-encoding DNA abundance (4.5 h post-induction vs induction); higher = less antimicrobial activity (less host growth inhibition)
Conditions: time post-induction: 4.5 h; library: site-saturation at positions 5, 18, 19, 20
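Note: peptides expressed intracellularly from a pBAD plasmid library in pooled LB shake-flask culture, induced with 0.3% L-arabinose, DNA abundance read by NGS, three biological replicates, DESeq2 with apeglm shrinkage.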

Row | Sequence | shrunken log2 fold change
1 | RRIRCRPPRLPRPRPRPEWQPRP | -0.0271
2 | RRIRIRPPRLPRPRPRPGLMPRP | -0.0194
3 | RRIRYRPPRLPRPRPRPNKKPRP | -0.298
4 | RRIRQRPPRLPRPRPRPVQLPRP | 0.163
5 | RRIRERPPRLPRPRPRPKRLPRP | 0.0323
6 | RRIRERPPRLPRPRPRPIWRPRP | 0.0579
7 | RRIRKRPPRLPRPRPRPSIKPRP | -0.004
8 | RRIRIRPPRLPRPRPRPWTPPRP | -0.179
9 | RRIRQRPPRLPRPRPRPFAMPRP | -0.132
10 | RRIRTRPPRLPRPRPRPSMVPRP | -0.0429
11 | RRIRERPPRLPRPRPRPWGMPRP | 0.115
12 | RRIRGRPPRLPRPRPRPINQPRP | -0.0767
13 | RRIRFRPPRLPRPRPRPYCVPRP | -1.23
14 | RRIRLRPPRLPRPRPRPSNVPRP | -0.288
15 | RRIRGRPPRLPRPRPRPHKLPRP | 0.213
16 | RRIRARPPRLPRPRPRPFHHPRP | -0.294
17 | RRIRCRPPRLPRPRPRPAFTPRP | 0.0636
18 | RRIRTRPPRLPRPRPRPKGLPRP | -0.117
19 | RRIRARPPRLPRPRPRPRAEPRP | 0.983
20 | RRIRDRPPRLPRPRPRPYLNPRP | -0.272
21 | RRIRGRPPRLPRPRPRPTEEPRP | 0.525
22 | RRIRRRPPRLPRPRPRPMLPPRP | -0.000603
23 | RRIRGRPPRLPRPRPRPDKPPRP | 0.415
24 | RRIRKRPPRLPRPRPRPWCQPRP | -0.0158
25 | RRIRMRPPRLPRPRPRPSLDPRP | 0.663

Row | Sequence | shrunken log2 fold change
26 | RRIRVRPPRLPRPRPRPFGNPRP | 0.0432
27 | RRIRMRPPRLPRPRPRPYWNPRP | -1.04
28 | RRIRSRPPRLPRPRPRPWFCPRP | -0.439
29 | RRIRQRPPRLPRPRPRPMMYPRP | 0.0473
30 | RRIRGRPPRLPRPRPRPNCSPRP | 0.99
31 | RRIRYRPPRLPRPRPRPICHPRP | -0.305
32 | RRIRIRPPRLPRPRPRPIEAPRP | -0.01
33 | RRIRLRPPRLPRPRPRPWDMPRP | -0.235
34 | RRIRWRPPRLPRPRPRPQIPPRP | -0.493
35 | RRIRFRPPRLPRPRPRPRTSPRP | 0.223
36 | RRIRPRPPRLPRPRPRPQPWPRP | 0.348
37 | RRIRERPPRLPRPRPRPEREPRP | 0.414
38 | RRIRCRPPRLPRPRPRPEFWPRP | 0.163
39 | RRIRLRPPRLPRPRPRPLCNPRP | -0.453
40 | RRIRARPPRLPRPRPRPWLPPRP | 0.197
41 | RRIRKRPPRLPRPRPRPKMGPRP | 0.0837
42 | RRIRSRPPRLPRPRPRPSNKPRP | -0.413
43 | RRIRMRPPRLPRPRPRPHLKPRP | 0.253
44 | RRIRRRPPRLPRPRPRPSAFPRP | 1.27
45 | RRIRSRPPRLPRPRPRPCHDPRP | -0.105
46 | RRIRARPPRLPRPRPRPYFHPRP | -0.444
47 | RRIRHRPPRLPRPRPRPLCQPRP | -0.316
48 | RRIRERPPRLPRPRPRPDQGPRP | 0.0476
49 | RRIRTRPPRLPRPRPRPKQDPRP | 0.075
50 | RRIRHRPPRLPRPRPRPGNHPRP | -0.161

Row | Sequence | shrunken log2 fold change
51 | RRIRLRPPRLPRPRPRPSQKPRP | 0.00285
52 | RRIRPRPPRLPRPRPRPVQPPRP | 0.000272
53 | RRIRRRPPRLPRPRPRPHEKPRP | 0.0358
54 | RRIRGRPPRLPRPRPRPTHPPRP | 0.868
55 | RRIRPRPPRLPRPRPRPQCLPRP | 0.0368
56 | RRIRKRPPRLPRPRPRPPNMPRP | 0.0839
57 | RRIRSRPPRLPRPRPRPKEAPRP | -0.144
58 | RRIRMRPPRLPRPRPRPGDGPRP | 0.864
59 | RRIRRRPPRLPRPRPRPAWNPRP | 0.141
60 | RRIRHRPPRLPRPRPRPLPQPRP | 0.348
61 | RRIRFRPPRLPRPRPRPGDQPRP | 0.0789
62 | RRIRLRPPRLPRPRPRPMKHPRP | -0.409
63 | RRIRQRPPRLPRPRPRPEKSPRP | 0.287
64 | RRIRWRPPRLPRPRPRPKWQPRP | 0.0119
65 | RRIRERPPRLPRPRPRPCFWPRP | -0.176
66 | RRIRRRPPRLPRPRPRPNFAPRP | 0.0508
67 | RRIRQRPPRLPRPRPRPDKWPRP | -0.00997
68 | RRIRVRPPRLPRPRPRPCYHPRP | -0.00421
69 | RRIRFRPPRLPRPRPRPYRFPRP | -0.243
70 | RRIRVRPPRLPRPRPRPNNEPRP | -0.301
71 | RRIRKRPPRLPRPRPRPLGAPRP | 0.58
72 | RRIRQRPPRLPRPRPRPKWYPRP | -0.118
73 | RRIRMRPPRLPRPRPRPIGVPRP | 0.0547
74 | RRIRFRPPRLPRPRPRPGLCPRP | 0.606
75 | RRIRHRPPRLPRPRPRPVPEPRP | 0.143

Row | Sequence | shrunken log2 fold change
76 | RRIRTRPPRLPRPRPRPLIYPRP | -0.174
77 | RRIRTRPPRLPRPRPRPIKPPRP | -0.0369
78 | RRIRYRPPRLPRPRPRPERMPRP | -0.459
79 | RRIRQRPPRLPRPRPRPKPWPRP | 0.502
80 | RRIRLRPPRLPRPRPRPPIKPRP | -0.179
81 | RRIRTRPPRLPRPRPRPWKSPRP | -0.0257
82 | RRIRTRPPRLPRPRPRPSSNPRP | -0.589
83 | RRIRYRPPRLPRPRPRPQRAPRP | -0.374
84 | RRIRGRPPRLPRPRPRPNNLPRP | -0.349
85 | RRIRLRPPRLPRPRPRPWALPRP | 0.0419
86 | RRIRHRPPRLPRPRPRPTANPRP | 0.0557
87 | RRIRTRPPRLPRPRPRPITSPRP | 0.0903
88 | RRIRPRPPRLPRPRPRPIRIPRP | -0.149
89 | RRIRYRPPRLPRPRPRPEDNPRP | -0.0125
90 | RRIRERPPRLPRPRPRPFRMPRP | -0.3
91 | RRIRFRPPRLPRPRPRPDHTPRP | -0.318
92 | RRIRCRPPRLPRPRPRPQHNPRP | -0.771
93 | RRIRTRPPRLPRPRPRPKLGPRP | 0.106
94 | RRIRIRPPRLPRPRPRPKQKPRP | -0.12
95 | RRIRDRPPRLPRPRPRPCNMPRP | -0.225
96 | RRIRMRPPRLPRPRPRPRFFPRP | 0.286
97 | RRIRKRPPRLPRPRPRPDRYPRP | -0.0261
98 | RRIRTRPPRLPRPRPRPHARPRP | 0.158
99 | RRIRPRPPRLPRPRPRPVMIPRP | -0.251
100 | RRIRGRPPRLPRPRPRPDRMPRP | -0.107

Row | Sequence | shrunken log2 fold change
101 | RRIRSRPPRLPRPRPRPKFIPRP | -0.482
102 | RRIRDRPPRLPRPRPRPSYCPRP | -0.046
103 | RRIRERPPRLPRPRPRPNNIPRP | -0.787
104 | RRIRYRPPRLPRPRPRPQTGPRP | -0.288
105 | RRIRRRPPRLPRPRPRPWTQPRP | -0.0997
106 | RRIRHRPPRLPRPRPRPFPMPRP | -0.651
107 | RRIRCRPPRLPRPRPRPEMIPRP | 0.12
108 | RRIRMRPPRLPRPRPRPYTGPRP | 0.042
109 | RRIRCRPPRLPRPRPRPCCEPRP | 0.0666
110 | RRIRARPPRLPRPRPRPTTLPRP | 0.067
111 | RRIRHRPPRLPRPRPRPWGPPRP | -0.0071
112 | RRIRVRPPRLPRPRPRPDQCPRP | 0.0862
113 | RRIRTRPPRLPRPRPRPVLVPRP | -0.106
114 | RRIRHRPPRLPRPRPRPDFLPRP | -0.0554
115 | RRIRLRPPRLPRPRPRPFGEPRP | 0.084
116 | RRIRMRPPRLPRPRPRPCARPRP | 0.343
117 | RRIRKRPPRLPRPRPRPWHDPRP | -0.406
118 | RRIRNRPPRLPRPRPRPGSPPRP | -0.11
119 | RRIRIRPPRLPRPRPRPASRPRP | -0.106
120 | RRIRPRPPRLPRPRPRPGMHPRP | 0.206
121 | RRIRERPPRLPRPRPRPSDYPRP | -0.627
122 | RRIRSRPPRLPRPRPRPKRHPRP | 0.169
123 | RRIRVRPPRLPRPRPRPSWYPRP | -0.698
124 | RRIRVRPPRLPRPRPRPRDTPRP | -0.0483
125 | RRIRARPPRLPRPRPRPCIRPRP | -0.365

Row | Sequence | shrunken log2 fold change
126 | RRIRKRPPRLPRPRPRPTLAPRP | 1.19
127 | RRIRGRPPRLPRPRPRPMYFPRP | -0.0129
128 | RRIRARPPRLPRPRPRPRIEPRP | 0.309
129 | RRIRVRPPRLPRPRPRPYMFPRP | -0.552
130 | RRIRQRPPRLPRPRPRPIGLPRP | -0.00141
131 | RRIRYRPPRLPRPRPRPVWLPRP | -0.0438
132 | RRIRQRPPRLPRPRPRPINLPRP | -0.123
133 | RRIRTRPPRLPRPRPRPPFCPRP | 0.188
134 | RRIRVRPPRLPRPRPRPDSCPRP | -0.115
135 | RRIRDRPPRLPRPRPRPNCGPRP | 0.387
136 | RRIRHRPPRLPRPRPRPLFGPRP | -0.0987
137 | RRIRERPPRLPRPRPRPYKQPRP | -0.049
138 | RRIRHRPPRLPRPRPRPWHDPRP | -0.00088
139 | RRIRDRPPRLPRPRPRPMVEPRP | 0.465
140 | RRIRCRPPRLPRPRPRPMGDPRP | -0.0113
141 | RRIRMRPPRLPRPRPRPSIPPRP | -0.316
142 | RRIRRRPPRLPRPRPRPALHPRP | 0.651
143 | RRIRWRPPRLPRPRPRPINDPRP | -0.222
144 | RRIRARPPRLPRPRPRPLNGPRP | 0.0986
145 | RRIRIRPPRLPRPRPRPWTEPRP | -0.843
146 | RRIRRRPPRLPRPRPRPYTAPRP | -0.447
147 | RRIRSRPPRLPRPRPRPCLKPRP | 0.0091
148 | RRIRMRPPRLPRPRPRPYNCPRP | -0.0909
149 | RRIRDRPPRLPRPRPRPDHKPRP | -0.119
150 | RRIRTRPPRLPRPRPRPPARPRP | 0.546
